These results are taken from PMC2397435 (2008).

For assay [1], the target named is p9 p9 (Equine infectious anemia virus) (UniProt P69730). The assay is described as follows: SPR. To be noted: cited from earlier work.
In assay [2] the target is T1, GAL4 DBD-p9 EIAVUK, P69732.
T1 chain: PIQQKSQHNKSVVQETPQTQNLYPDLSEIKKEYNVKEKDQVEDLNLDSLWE
The assay is described as follows: yeast two-hybrid, β-galactosidase assay. To be noted: chain shown with the change;; parent: est. 1.2; read off a plot.

For assay [3], the target named is T2, Gal4 DBD-HIV-1 p6 (wild type), P12493.
T2 chain: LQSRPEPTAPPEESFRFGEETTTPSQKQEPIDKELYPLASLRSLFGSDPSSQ
Nature of the assay: yeast two-hybrid, β-galactosidase assay. The note with it: chain shown with the change;; parent: est. 0.85; read off a plot.

For the molecule “ALIX deleted from PRR (from UniProt Q8WUM4)”, the dissociation constant (Kd) (usually the equilibrium constant for the complex coming apart) in assay [1] is 1.2 µM.

B1: Gal4 AD-ALIXΔ541–582, Q8WUM4-1 V509A (protein)
chain: MATFISVQLKKTSEVDLAKPLVKFIQQTYPSGGEEQAQYCRAAEELSKLRRAAVGRPLDKHEGALETLLRYYDQICSIEPKFPFSENQICLTFTWKDAFDKGSLFGGSVKLALASLGYEKSCVLFNCAALASQIAAEQNLDNDEGLKIAAKHYQFASGAFLHIKETVLSALSREPTVDISPDTVGTLSLIMLAQAQEVFFLKATRDKMKDAIIAKLANQAADYFGDAFKQCQYKDTLPKEVFPVLAAKHCIMQANAEYHQSILAKQQKKFGEEIARLQHAAELIKTVASRYDEYVNVKDFSDKINRALAAAKKDNDFIYHDRVPDLKDLDPIGKATLVKSTPVNVPISQKFTDLFEKMVPVSVQQSLAAYNQRKADLVNRSIAQMREATTLANGVLASLNLPAAIEDVSGDTVPQSILTKSRSVIEQGGIQTVDQLIKELPELLQRNREILDESLRLLDEEEATDNDLRAKFKERWQRTPSNELYKPLRAEGTNFRTVLDKAVQADGQAKECYQSHRDTIVLLCKPEPELNAAIPSANPAKTMQGSEVVNVLKSLLSNLDEVKKEREGLENDLKSVNFDMTSKFLTALAQDGVINEEALSVTELDRVYGGLTTKVQESLKKQEGLLKNIQVSHQEFSKMKQSNNEANLREEVLKNLATAYDNFVELVANLKEGTKFYNELTEILVRFQNKCSDIVFARKTERDELLKDLQQSIAREPSAPSIPTPAYQSSPAGGHAPTPPTPAPRTMPPTKPQPPARPPPPVLPANRAPSATAPSPVGAGTAAPAPSQTPGSAPPPQAQGPPYPTYPGYPGYCQMPMPMGYNPYAYGQYNMPYPPVYHQSPGQAPYPGPQQPSYPFPQPPQQSYYPQQ
On to B1, for which the other: relative β-Gal activity (relative to ALIX wild type = 1) turned out to be 1.1 in assay [2] and 0.05 in assay [3].
